Measured values as given in publication PMC10543594.

Key:
[1] = biological target: SARS-CoV-2 Delta spike ectodomain without trimerization domain (SARS-CoV-2) (UniProt P0DTC2)
[2] = biological target: SARS-CoV-2 Alpha variant spike ectodomain fused to resistin (SARS-CoV-2 | human) (UniProt P0DTC2); experiment: SEC-MALS

Substance | percent trimeric [1] | stoichiometry N [2]
SARS-CoV-2 Delta spike ectodomain without trimerization domain (from UniProt P0DTC2 14-1213) (domain or fragment) | 30 to 50% | 
SARS-CoV-2 Alpha variant spike ectodomain fused to resistin (from UniProt P0DTC2 14-1213) |  | 6
